From patent publication US20200181251A1 (SCHOLAR ROCK, published 2020) come the findings set out here.

The assay deals with T1, LRRC33 (Leucine-rich repeat-containing protein 33) (human, UniProt Q86YC3 19-692).
T1 construct: Endogenous LRRC33 on the surface of PMA-stimulated THP1 cells; On cells it may be complexed with proTGFb1; also called NRROS; Negative Regulator of Reactive Oxygen Species
T1 sequence: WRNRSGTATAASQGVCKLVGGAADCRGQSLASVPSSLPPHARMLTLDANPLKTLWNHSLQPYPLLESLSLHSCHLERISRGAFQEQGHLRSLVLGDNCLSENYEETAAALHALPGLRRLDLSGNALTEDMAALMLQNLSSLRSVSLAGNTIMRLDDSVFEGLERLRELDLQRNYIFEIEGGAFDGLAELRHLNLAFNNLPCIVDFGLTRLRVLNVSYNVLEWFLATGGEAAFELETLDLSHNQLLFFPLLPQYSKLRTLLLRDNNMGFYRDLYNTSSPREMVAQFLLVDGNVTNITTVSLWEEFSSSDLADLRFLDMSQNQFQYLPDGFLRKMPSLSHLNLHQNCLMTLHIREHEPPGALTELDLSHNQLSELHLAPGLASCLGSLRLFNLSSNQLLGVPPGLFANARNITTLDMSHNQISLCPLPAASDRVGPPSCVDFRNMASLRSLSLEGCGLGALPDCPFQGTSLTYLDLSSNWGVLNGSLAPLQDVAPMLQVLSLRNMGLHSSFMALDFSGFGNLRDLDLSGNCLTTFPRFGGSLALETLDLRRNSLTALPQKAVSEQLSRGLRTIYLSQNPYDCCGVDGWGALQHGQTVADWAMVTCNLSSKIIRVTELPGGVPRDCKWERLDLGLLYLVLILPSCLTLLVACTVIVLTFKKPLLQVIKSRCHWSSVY
The assay can be described thus: staining of PMA-stimulated THP1 cells with 10 ug/mL antibody, detected with fluorophore conjugated secondary antibody (internalization assay). The method, then: FIG. 15 provides results from an internalization study. THP1 cells were stimulated overnight with PMA to induce LRRC33 surface expression and adherence to tissue culture plastic. The next day, cells were stained with antibodies at 10 ug/mL for 1 hour. A subset of cells were washed and moved to cell culture media and to 37° C. for 1 hour or two hours, while another subset (time 0) were immediately fixed. Another subset of cells were washed and kept at 4° C. Internalization was detected by using fluorophore conjugated secondary antibodies against the primary antibody isotypes. Gemtuzumab and SRL1, a human specific mouse antibody against LRRC33, internalize similarly.

B1: SRL1 (antibody, V domains shown)
VH: EVQLQQSGTVLARPGASVKMSCKASGYTFTYYWMQWVKQRPGQGLEWIGAIYPGNSDTTYNQKFKGKAKLTAVTSTSTAYMELSSLTNEDSAVYYCTNTNWEAMDYWGQGTSVTVSS
VL: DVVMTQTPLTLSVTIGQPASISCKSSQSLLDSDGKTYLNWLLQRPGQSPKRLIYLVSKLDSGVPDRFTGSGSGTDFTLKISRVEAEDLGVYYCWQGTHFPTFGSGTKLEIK
notes: also called LRRC33 antibody SRL1
As to B1, the binding result was “binds”.
